In the supplement of paper PMC7125110:
± gives the standard error. For some of these results: This sample holds only a part of the variants without activity.

B1: glmS ribozyme (parent)
chain: AUAAAAGCGCCAGAACUACAGAAAUGUAGUUGACGAGGAGGAGGUUUAUCGAAUUUUCGGCGGAUGCCUCCAAA

Tests used:
Conditions in all cases: with glucosamine-6-phosphate
glucosamine-6-phosphate [1] = variants of: B1; assay: kcat; higher = faster cleavage; RNA array
In short: (§1)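 Weighted Michaelis–Menten fits across concentrations supplied kcat and KM, based on kobs from one- or two-exponential decay fits to normalised per-tile medians. The data came from barcoded ribozyme variants transcribed in situ by E. coli RNA polymerase on sequenced MiSeq chips and tracked at 37 °C by a hybridised Cy3 probe. Glucosamine-6-phosphate (40 μM to 10 mM) in HEPES/KCl/Mg(OAc)2 buffer was flowed in.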

glucosamine-6-phosphate [2] = variants of: B1; assay: KM; higher = weaker cofactor use; RNA array
In short: as §1

glucosamine-6-phosphate [3] = variants of: B1; assay: self-cleavage kobs at 40 uM GlcN6P; higher = faster cleavage; RNA array
In short: as §1

glucosamine-6-phosphate [4] = variants of: B1; assay: self-cleavage kobs at 160 uM GlcN6P; higher = faster cleavage; RNA array
In short: as §1

glucosamine-6-phosphate [5] = variants of: B1; assay: self-cleavage kobs at 640 uM GlcN6P; higher = faster cleavage; RNA array
In short: as §1

glucosamine-6-phosphate [6] = variants of: B1; assay: self-cleavage kobs at 2500 uM GlcN6P; higher = faster cleavage; RNA array
In short: as §1

glucosamine-6-phosphate [7] = variants of: B1; assay: self-cleavage kobs at 10000 uM GlcN6P; higher = faster cleavage; RNA array
In short: as §1

A52C
kcat (glucosamine-6-phosphate [1]): 2.8e-05 ± 8.9e-07 s⁻¹ | KM (glucosamine-6-phosphate [2]): 835 ± 150 µM | self-cleavage kobs at 40 uM GlcN6P (glucosamine-6-phosphate [3]): < 1e-05 s⁻¹ | self-cleavage kobs at 160 uM GlcN6P (glucosamine-6-phosphate [4]): < 1e-05 s⁻¹ | self-cleavage kobs at 640 uM GlcN6P (glucosamine-6-phosphate [5]): 1.03e-05 ± 3.3e-06 s⁻¹ | self-cleavage kobs at 2500 uM GlcN6P (glucosamine-6-phosphate [6]): 2.17e-05 ± 1.5e-06 s⁻¹ | self-cleavage kobs at 10000 uM GlcN6P (glucosamine-6-phosphate [7]): 2.56e-05 ± 1.3e-06 s⁻¹

C68U
kcat (glucosamine-6-phosphate [1]): 0.00795 ± 0.003 s⁻¹ | KM (glucosamine-6-phosphate [2]): 2930 ± 1200 µM | self-cleavage kobs at 40 uM GlcN6P (glucosamine-6-phosphate [3]): 0.000113 ± 1.6e-06 s⁻¹ | self-cleavage kobs at 160 uM GlcN6P (glucosamine-6-phosphate [4]): 0.000316 ± 1.2e-05 s⁻¹ | self-cleavage kobs at 640 uM GlcN6P (glucosamine-6-phosphate [5]): 0.0015 ± 6.4e-05 s⁻¹ | self-cleavage kobs at 2500 uM GlcN6P (glucosamine-6-phosphate [6]): 0.00371 ± 0.00012 s⁻¹

G37U U46G
kcat (glucosamine-6-phosphate [1]): < 1e-05 s⁻¹ | self-cleavage kobs at 640 uM GlcN6P (glucosamine-6-phosphate [5]): < 1e-05 s⁻¹

A6C G66A
kcat (glucosamine-6-phosphate [1]): 8.29e-05 ± 2.9e-06 s⁻¹ | KM (glucosamine-6-phosphate [2]): 3320 ± 320 µM | self-cleavage kobs at 2500 uM GlcN6P (glucosamine-6-phosphate [6]): 3.57e-05 ± 1.3e-05 s⁻¹ | self-cleavage kobs at 10000 uM GlcN6P (glucosamine-6-phosphate [7]): 6.22e-05 ± 1.2e-05 s⁻¹

A14C C16A
kcat (glucosamine-6-phosphate [1]): 6.62e-05 ± 7.2e-06 s⁻¹ | self-cleavage kobs at 640 uM GlcN6P (glucosamine-6-phosphate [5]): 2.75e-05 ± 1.3e-05 s⁻¹ | self-cleavage kobs at 2500 uM GlcN6P (glucosamine-6-phosphate [6]): 6.73e-05 ± 1.1e-05 s⁻¹ | self-cleavage kobs at 10000 uM GlcN6P (glucosamine-6-phosphate [7]): 5.95e-05 ± 6.9e-06 s⁻¹

G13C U31G C70U
kcat (glucosamine-6-phosphate [1]): 0.000159 ± 3.6e-05 s⁻¹ | self-cleavage kobs at 640 uM GlcN6P (glucosamine-6-phosphate [5]): 4.2e-05 ± 1.9e-05 s⁻¹ | self-cleavage kobs at 2500 uM GlcN6P (glucosamine-6-phosphate [6]): 0.000148 ± 3.9e-05 s⁻¹ | self-cleavage kobs at 10000 uM GlcN6P (glucosamine-6-phosphate [7]): 0.000131 ± 2.7e-05 s⁻¹

A12U G41A
kcat (glucosamine-6-phosphate [1]): 0.00189 ± 0.00051 s⁻¹ | KM (glucosamine-6-phosphate [2]): 456 ± 210 µM | self-cleavage kobs at 40 uM GlcN6P (glucosamine-6-phosphate [3]): 0.000183 ± 2e-05 s⁻¹ | self-cleavage kobs at 160 uM GlcN6P (glucosamine-6-phosphate [4]): 0.00038 ± 0.00011 s⁻¹ | self-cleavage kobs at 640 uM GlcN6P (glucosamine-6-phosphate [5]): 0.00073 ± 0.00014 s⁻¹ | self-cleavage kobs at 2500 uM GlcN6P (glucosamine-6-phosphate [6]): 0.00213 ± 0.0004 s⁻¹ | self-cleavage kobs at 10000 uM GlcN6P (glucosamine-6-phosphate [7]): 0.00216 ± 0.00028 s⁻¹

U54A U65A
kcat (glucosamine-6-phosphate [1]): 0.00834 ± 0.0013 s⁻¹ | KM (glucosamine-6-phosphate [2]): 4300 ± 1100 µM | self-cleavage kobs at 40 uM GlcN6P (glucosamine-6-phosphate [3]): 0.000105 ± 2.7e-05 s⁻¹ | self-cleavage kobs at 640 uM GlcN6P (glucosamine-6-phosphate [5]): 0.00105 ± 0.00019 s⁻¹ | self-cleavage kobs at 2500 uM GlcN6P (glucosamine-6-phosphate [6]): 0.00254 ± 0.00097 s⁻¹ | self-cleavage kobs at 10000 uM GlcN6P (glucosamine-6-phosphate [7]): 0.00595 ± 0.00078 s⁻¹

A52G C68G
kcat (glucosamine-6-phosphate [1]): 5.61e-05 ± 9.7e-06 s⁻¹ | self-cleavage kobs at 640 uM GlcN6P (glucosamine-6-phosphate [5]): 6.55e-05 ± 1.4e-05 s⁻¹ | self-cleavage kobs at 2500 uM GlcN6P (glucosamine-6-phosphate [6]): 7.16e-05 ± 1.2e-05 s⁻¹ | self-cleavage kobs at 10000 uM GlcN6P (glucosamine-6-phosphate [7]): 4.28e-05 ± 8.7e-06 s⁻¹

C10U C67G U69G
kcat (glucosamine-6-phosphate [1]): 1.67e-05 ± 3.6e-06 s⁻¹

C70G C71G
kcat (glucosamine-6-phosphate [1]): 3.62e-05 ± 7e-06 s⁻¹ | self-cleavage kobs at 160 uM GlcN6P (glucosamine-6-phosphate [4]): 3.85e-05 ± 1.4e-05 s⁻¹ | self-cleavage kobs at 640 uM GlcN6P (glucosamine-6-phosphate [5]): 5.98e-05 ± 1.4e-05 s⁻¹ | self-cleavage kobs at 2500 uM GlcN6P (glucosamine-6-phosphate [6]): 3.62e-05 ± 9.7e-06 s⁻¹ | self-cleavage kobs at 10000 uM GlcN6P (glucosamine-6-phosphate [7]): 2.86e-05 ± 7.6e-06 s⁻¹

A15U U31G U47A
kcat (glucosamine-6-phosphate [1]): 0.000799 ± 0.00019 s⁻¹ | KM (glucosamine-6-phosphate [2]): 5260 ± 2100 µM | self-cleavage kobs at 640 uM GlcN6P (glucosamine-6-phosphate [5]): 0.000105 ± 2.5e-05 s⁻¹ | self-cleavage kobs at 2500 uM GlcN6P (glucosamine-6-phosphate [6]): 0.000221 ± 5.7e-05 s⁻¹ | self-cleavage kobs at 10000 uM GlcN6P (glucosamine-6-phosphate [7]): 0.000537 ± 8.1e-05 s⁻¹

U31G U65C
kcat (glucosamine-6-phosphate [1]): 0.000173 ± 5.1e-05 s⁻¹ | self-cleavage kobs at 640 uM GlcN6P (glucosamine-6-phosphate [5]): 4.57e-05 ± 1.5e-05 s⁻¹ | self-cleavage kobs at 2500 uM GlcN6P (glucosamine-6-phosphate [6]): 6.33e-05 ± 1.4e-05 s⁻¹ | self-cleavage kobs at 10000 uM GlcN6P (glucosamine-6-phosphate [7]): 0.000136 ± 2e-05 s⁻¹

C34A A36C U45A
kcat (glucosamine-6-phosphate [1]): < 1e-05 s⁻¹ | self-cleavage kobs at 40 uM GlcN6P (glucosamine-6-phosphate [3]): < 1e-05 s⁻¹ | self-cleavage kobs at 160 uM GlcN6P (glucosamine-6-phosphate [4]): < 1e-05 s⁻¹

A33C U54G
kcat (glucosamine-6-phosphate [1]): 0.00057 ± 0.00014 s⁻¹ | self-cleavage kobs at 160 uM GlcN6P (glucosamine-6-phosphate [4]): 8.91e-05 ± 2.6e-05 s⁻¹ | self-cleavage kobs at 640 uM GlcN6P (glucosamine-6-phosphate [5]): 8.56e-05 ± 1.7e-05 s⁻¹ | self-cleavage kobs at 2500 uM GlcN6P (glucosamine-6-phosphate [6]): 0.000325 ± 3.8e-05 s⁻¹ | self-cleavage kobs at 10000 uM GlcN6P (glucosamine-6-phosphate [7]): 0.00043 ± 4.3e-05 s⁻¹

A15U A48U
kcat (glucosamine-6-phosphate [1]): 0.000133 ± 4.2e-05 s⁻¹ | self-cleavage kobs at 160 uM GlcN6P (glucosamine-6-phosphate [4]): < 1e-05 s⁻¹ | self-cleavage kobs at 10000 uM GlcN6P (glucosamine-6-phosphate [7]): 4.87e-05 ± 9.2e-06 s⁻¹

A39C U54C
kcat (glucosamine-6-phosphate [1]): 0.00666 ± 0.0019 s⁻¹ | KM (glucosamine-6-phosphate [2]): 2400 ± 1100 µM | self-cleavage kobs at 40 uM GlcN6P (glucosamine-6-phosphate [3]): 0.000105 ± 2.5e-05 s⁻¹ | self-cleavage kobs at 640 uM GlcN6P (glucosamine-6-phosphate [5]): 0.00125 ± 0.0003 s⁻¹ | self-cleavage kobs at 2500 uM GlcN6P (glucosamine-6-phosphate [6]): 0.00481 ± 0.00084 s⁻¹ | self-cleavage kobs at 10000 uM GlcN6P (glucosamine-6-phosphate [7]): 0.00475 ± 0.00095 s⁻¹
